# Measurements taken from article PMC6858856.
# Read-outs that look alike come from different tables or passages of the source.
# How the values were obtained:
# [1] = target: FANCB-FAAP100 heterodimer (Gallus gallus) (Gallus gallus); experiment: cryo-EM structure
# [2] = target: FANCB-FAAP100 heterodimer (Gallus gallus) (Gallus gallus); experiment: cryo-EM structure; remark: listed apart in the source
substance,measurement,setting,value
FANCB-FAAP100 heterodimer (Gallus gallus) (complex),stoichiometry N,[1],2
same,stoichiometry N,[2],2
